Experimental data reported in the Human Domainome abundance scans (Beltran et al. 2025).
± gives the uncertainty stated by the source.

Assay: abundance fitness (aPCA) (normalised: wild type 0, dead -1); higher = more abundant; growth selection in yeast, the domain comes from the species named
Conditions: Homo sapiens

Substance | abundance fitness
Scaffold attachment factor B1 G70R, Q15424 | -0.196 ± 0.053
Scaffold attachment factor B1 G70S, Q15424 | -0.197 ± 0.057
Scaffold attachment factor B1 G70T, Q15424 | -0.408 ± 0.092
Scaffold attachment factor B1 G70W, Q15424 | -0.474 ± 0.055
Scaffold attachment factor B1 G70Y, Q15424 | -0.483 ± 0.1
Scaffold attachment factor B1 I37C, Q15424 | -0.281 ± 0.072
Scaffold attachment factor B1 I37D, Q15424 | -0.175 ± 0.075
Scaffold attachment factor B1 I37G, Q15424 | -0.028 ± 0.05
Scaffold attachment factor B1 I37H, Q15424 | -0.186 ± 0.085
Scaffold attachment factor B1 I37K, Q15424 | -0.103 ± 0.076
Scaffold attachment factor B1 I37L, Q15424 | -0.124 ± 0.056
Scaffold attachment factor B1 I37M, Q15424 | -0.057 ± 0.061
Scaffold attachment factor B1 I37N, Q15424 | -0.25 ± 0.078
Scaffold attachment factor B1 I37R, Q15424 | -0.04 ± 0.054
Scaffold attachment factor B1 I37S, Q15424 | -0.17 ± 0.054
Scaffold attachment factor B1 I37V, Q15424 | -0.15 ± 0.06
Scaffold attachment factor B1 I37Y, Q15424 | -0.231 ± 0.059
Scaffold attachment factor B1 I65A, Q15424 | -0.596 ± 0.069
Scaffold attachment factor B1 I65C, Q15424 | -0.141 ± 0.087
Scaffold attachment factor B1 I65D, Q15424 | -0.706 ± 0.077
Scaffold attachment factor B1 I65E, Q15424 | -0.497 ± 0.085
Scaffold attachment factor B1 I65F, Q15424 | -0.466 ± 0.099
Scaffold attachment factor B1 I65G, Q15424 | -0.564 ± 0.057
Scaffold attachment factor B1 I65H, Q15424 | -0.917 ± 0.14
Scaffold attachment factor B1 I65K, Q15424 | -0.434 ± 0.061
Scaffold attachment factor B1 I65L, Q15424 | -0.143 ± 0.049
Scaffold attachment factor B1 I65M, Q15424 | -0.312 ± 0.069

Substance | abundance fitness
Scaffold attachment factor B1 I65N, Q15424 | -0.598 ± 0.089
Scaffold attachment factor B1 I65P, Q15424 | -0.559 ± 0.051
Scaffold attachment factor B1 I65R, Q15424 | -0.287 ± 0.045
Scaffold attachment factor B1 I65S, Q15424 | -0.577 ± 0.058
Scaffold attachment factor B1 I65W, Q15424 | -0.457 ± 0.051
Scaffold attachment factor B1 I65Y, Q15424 | -0.535 ± 0.14
Scaffold attachment factor B1 I75A, Q15424 | -0.304 ± 0.071
Scaffold attachment factor B1 I75C, Q15424 | -0.28 ± 0.086
Scaffold attachment factor B1 I75D, Q15424 | -0.449 ± 0.11
Scaffold attachment factor B1 I75E, Q15424 | -0.459 ± 0.09
Scaffold attachment factor B1 I75F, Q15424 | -0.371 ± 0.095
Scaffold attachment factor B1 I75G, Q15424 | -0.264 ± 0.057
Scaffold attachment factor B1 I75H, Q15424 | -0.543 ± 0.13
Scaffold attachment factor B1 I75K, Q15424 | -0.253 ± 0.06
Scaffold attachment factor B1 I75L, Q15424 | -0.099 ± 0.054
Scaffold attachment factor B1 I75M, Q15424 | -0.19 ± 0.065
Scaffold attachment factor B1 I75N, Q15424 | -0.219 ± 0.058
Scaffold attachment factor B1 I75P, Q15424 | -0.31 ± 0.084
Scaffold attachment factor B1 I75Q, Q15424 | -0.311 ± 0.071
Scaffold attachment factor B1 I75R, Q15424 | -0.285 ± 0.057
Scaffold attachment factor B1 I75S, Q15424 | -0.257 ± 0.056
Scaffold attachment factor B1 I75T, Q15424 | -0.194 ± 0.064
Scaffold attachment factor B1 I75V, Q15424 | -0.113 ± 0.049
Scaffold attachment factor B1 I77A, Q15424 | -0.157 ± 0.062
Scaffold attachment factor B1 I77C, Q15424 | -0.187 ± 0.061
Scaffold attachment factor B1 I77D, Q15424 | -0.212 ± 0.071
Scaffold attachment factor B1 I77E, Q15424 | -0.102 ± 0.092

Substance | abundance fitness
Scaffold attachment factor B1 I77F, Q15424 | -0.076 ± 0.058
Scaffold attachment factor B1 I77G, Q15424 | -0.195 ± 0.064
Scaffold attachment factor B1 I77H, Q15424 | -0.163 ± 0.056
Scaffold attachment factor B1 I77K, Q15424 | -0.136 ± 0.073
Scaffold attachment factor B1 I77L, Q15424 | -0.227 ± 0.064
Scaffold attachment factor B1 I77M, Q15424 | -0.305 ± 0.087
Scaffold attachment factor B1 I77N, Q15424 | -0.235 ± 0.073
Scaffold attachment factor B1 I77P, Q15424 | -0.381 ± 0.096
Scaffold attachment factor B1 I77Q, Q15424 | -0.262 ± 0.077
Scaffold attachment factor B1 I77R, Q15424 | -0.156 ± 0.055
Scaffold attachment factor B1 I77S, Q15424 | -0.08 ± 0.051
Scaffold attachment factor B1 I77V, Q15424 | -0.163 ± 0.066
Scaffold attachment factor B1 I77W, Q15424 | -0.119 ± 0.053
Scaffold attachment factor B1 K45A, Q15424 | -0.013 ± 0.27
Scaffold attachment factor B1 K45R, Q15424 | 0.218 ± 0.2
Scaffold attachment factor B1 K45V, Q15424 | -0.929 ± 0.46
Scaffold attachment factor B1 K54A, Q15424 | -0.181 ± 0.061
Scaffold attachment factor B1 K54C, Q15424 | -0.361 ± 0.063
Scaffold attachment factor B1 K54D, Q15424 | -0.329 ± 0.075
Scaffold attachment factor B1 K54E, Q15424 | -0.207 ± 0.079
Scaffold attachment factor B1 K54F, Q15424 | -0.249 ± 0.062
Scaffold attachment factor B1 K54G, Q15424 | -0.234 ± 0.05
Scaffold attachment factor B1 K54H, Q15424 | -0.401 ± 0.11
Scaffold attachment factor B1 K54I, Q15424 | -0.271 ± 0.077
Scaffold attachment factor B1 K54L, Q15424 | -0.28 ± 0.048
